From paper doi:10.1101/505453

Molecular target: Oryza sativa hyperosmolality-gated protein OsOSCA1.2 (Oryza sativa (rice))
Assay: SEC-MALS

Oryza sativa hyperosmolality-gated protein OsOSCA1.2 (natural protein)
stoichiometry N: 2
